± gives the standard deviation.

A short description of this data set: protein stability index of a GFP-peptide fusion (GPS, HEK-293T) (PSI 1-6); higher = more stable.
The mark [1] stands for this setting: treatment: DMSO, c terminus: a fixed tail appended.
The mark [2] stands for this setting: treatment: MLN4924 1 uM, 8 h, c terminus: a fixed tail appended.
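Further: 24-mer peptide tiles fused after GFP, lentivirally expressed, FACS-sorted into six equal bins by GFP/DsRed ratio, decoded by Illumina sequencing, PSI is the read-weighted mean bin number.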

For RWFRSVDWEAVPQRKLKPPIVPKI [PRKX], the protein stability index is, setting by setting: under setting [1], 2.33 ± 0.26; under setting [2], 2.44 ± 0.29.

For the sequence RWSPAQEESFRQMVVIHKEIPTGK [ZNF232], the protein stability index under setting [1] is 3.87 ± 0.42 and the protein stability index under setting [2] amounted to 3.99 ± 0.17.

RYRGLPAPGPSPADKKRSGKKKIS [WAS]: the protein stability index reads like this: under setting [1], 4.76 ± 0.3; under setting [2], 4.71 ± 0.21.

For SAHFTSGPLVPRLAGMANHGSPQL [TBX5], the protein stability index is, setting by setting: under setting [1], 3.35 ± 0.21; under setting [2], 3.5 ± 0.13.

SALEDQGSNPSSSNSSQDSLHKGA [PPFIA4]: the protein stability index was found to be 5.48 ± 0.14 under setting [1] and 5.49 ± 0.23 under setting [2].

Turning to SALERLETKLHLLRQEMVNLRATD [LURAP1L], the protein stability index by setting is: under setting [1], 2.73 ± 0.22; under setting [2], 2.79 ± 0.58.

Take SALPFITYLENKGHRYPCFFNTLH [POP5]: the protein stability index is, setting by setting: under setting [1], 2.34 ± 0.46; under setting [2], 2.19 ± 0.42.

As for SALTEGAKEEGGEEVAKAVLEQEE [EPB41L3], the protein stability index was 5.63 ± 0.3 under setting [1] and 5.54 ± 0.41 under setting [2].

SANFHSLDDIYYFGGQNAHNQIAI [FUT8] came in with a protein stability index under setting [1] of 2.4 ± 0.72 and a protein stability index under setting [2] of 2.3 ± 0.24.

Turning to SASRKSAEQLRIELNAEKFKNSLL [WEE1], the protein stability index is, setting by setting: under setting [1], 3.2 ± 0.3; under setting [2], 3.29 ± 0.38.

In the case of SASSDEPYARIQQSRRQCHAEEDQ [SMIM2], the protein stability index is, setting by setting: under setting [1], 5.49 ± 0.17; under setting [2], 5.63 ± 0.2.

Take SAVAMYMLYEKQKQQNVAHCMLVS [ZBED1]: the protein stability index runs as follows: under setting [1], 2.92 ± 0.54; under setting [2], 2.74 ± 0.53.

As to SAVVQLYAADRNCMWSKKCSGVAC [WASL], the protein stability index under setting [1] turned out to be 2.36 ± 0.23 and the protein stability index under setting [2] came to 2.41 ± 0.42.

With SCIMENGHQPGTGPGDGPPEIAQN [SMTNL2], the protein stability index reads like this: under setting [1], 4.95 ± 0.28; under setting [2], 4.99 ± 0.074.

As for SCSSEDNLSLVCLPRSEDDDCDDD [DRICH1], the protein stability index is, setting by setting: under setting [1], 5.59 ± 0.17; under setting [2], 5.66 ± 0.15.

SDELSWIIELLEKDGMAFQEALDP [ELF3] registered a protein stability index under setting [1] of 2.62 ± 0.34 and a protein stability index under setting [2] of 3.02 ± 0.26.

With SDLLDEKEIAKNLIQPINHTTLQC [FEM1C], the protein stability index is, setting by setting: under setting [1], 3.83 ± 0.25; under setting [2], 4.03 ± 0.39.

Take SDLLSEFKKHDADKVGLITLSDWA [PPEF2]: the protein stability index by setting is: under setting [1], 3.35 ± 0.47; under setting [2], 3.44 ± 0.27.

Turning to SDTIPYLKKFLYNFDNPWNFQNIP [MIA2], the protein stability index by setting is: under setting [1], 2.28 ± 0.84; under setting [2], 2.5 ± 0.59.

The sequence SEARLSQRDLSPTAEDAELSDFEE [FCHSD1] registered a protein stability index under setting [1] of 5.44 ± 0.38 and a protein stability index under setting [2] of 5.53 ± 0.39.

As to SEEAVREVHRLIEGKAPIISGVTK [TPPP], the protein stability index under setting [1] is 4.44 ± 0.29 and the protein stability index under setting [2] came to 4.72 ± 0.14.

Take SEQLVNFTGKAEMGGPFSYVYFFC [TMEM106C]: the protein stability index is 2.69 ± 0.48 under setting [1] and 2.64 ± 0.45 under setting [2].

As for SERTDTAADGETTATEELEKTQDD [EPB41L3], the protein stability index runs as follows: under setting [1], 5.63 ± 0.2; under setting [2], 5.59 ± 0.21.

Regarding SFIIYLKNIVIADFVMSLTFPFKI [P2RY14], the protein stability index is 3.16 ± 0.29 under setting [1] and 3.22 ± 0.4 under setting [2].

Take SFQNMNSKRKAETWKKNRRQLAYS [STK38L]: the protein stability index is, setting by setting: under setting [1], 3.23 ± 0.33; under setting [2], 3.33 ± 0.22.

Regarding SGRHILEDSCAELGESKEHMESRM [SDE2], the protein stability index was 4.64 ± 0.35 under setting [1] and 4.48 ± 0.23 under setting [2].

As to SGVGIDGEVLSYLELAQFHNAHQL [RHOBTB1], the protein stability index was determined as 2.56 ± 0.33 under setting [1] and 2.67 ± 0.45 under setting [2].

SGVSDYDYLDLDKMSLYSEADSGY [TRIM9] returned a protein stability index under setting [1] of 4.14 ± 0.19 and a protein stability index under setting [2] of 3.76 ± 0.46.

In the case of SHAAPGPSPDSWVPRPGTPQSPPS [FCHO1], the protein stability index turned out to be 5.12 ± 0.47 under setting [1] and 5.05 ± 0.62 under setting [2].

In turn, SIKMGKRNGLHLPEQVQNEIKSMK [NLN] had a protein stability index under setting [1] of 4.02 ± 0.17 and a protein stability index under setting [2] of 3.87 ± 0.55.

In the case of SILFGHENRVSTLRVSPDGTAFCS [GNB5], the protein stability index is 2.88 ± 0.41 under setting [1] and 3.02 ± 0.13 under setting [2].

On to SIRDANLYVSGLPKTMSQKEMEQL [ELAVL3], for which the protein stability index turned out to be 4.4 ± 0.061 under setting [1] and 4.27 ± 0.2 under setting [2].

SISDVKFSHSGRYIMTRDYLTVKV [PPP2R2B]: the protein stability index by setting is: under setting [1], 2.37 ± 0.47; under setting [2], 2.52 ± 0.57.

Regarding SISEKLSSTNFAMKRDVQEGQARC [C8orf76], the protein stability index reads like this: under setting [1], 4.41 ± 0.23; under setting [2], 4.29 ± 0.22.

In the case of SIVILDNSPGAYRSHPDNAIPIKS [CTDNEP1], the protein stability index is 2.82 ± 0.27 under setting [1] and 2.91 ± 0.57 under setting [2].

Turning to SKPWHWPINYQGLRFSGVNDTDFR [POMT2], the protein stability index came out at 2.37 ± 0.17 under setting [1] and 2.52 ± 0.26 under setting [2].

Regarding SLALGDLIYVVIDLPINVFKLLAG [EDNRA], the protein stability index reads like this: under setting [1], 2.59 ± 1; under setting [2], 3.28 ± 0.54.

In the case of SLCTHLIYAFAGMTNHQLSTTEWN [CHIT1], the protein stability index is, setting by setting: under setting [1], 3.43 ± 0.33; under setting [2], 3.27 ± 0.38.

Consider SLFARAMQVLVTAISPGRFPEALD [ANKRD9], for which the protein stability index runs as follows: under setting [1], 3.04 ± 0.31; under setting [2], 2.8 ± 0.54.

As to SLGLSHSTDIGALMYPSYTFSGDV [MMP1], the protein stability index is, setting by setting: under setting [1], 3.15 ± 0.4; under setting [2], 3.19 ± 0.46.

Consider SLGVPGSVGGVPGGTGSGDGNKIF [ZBTB22], for which the protein stability index was 4.38 ± 0.26 under setting [1] and 4.3 ± 0.22 under setting [2].

In the case of SLHDGSDGLDGISVGSYLDTLADD [LURAP1L], the protein stability index was 5 ± 0.17 under setting [1] and 4.93 ± 0.25 under setting [2].

Sequence SLIILHLSGATKKGTEKQTTSETQ [NETO1] yielded a protein stability index under setting [1] of 2.35 ± 0.26 and a protein stability index under setting [2] of 2.27 ± 0.56.

Regarding SLIRKHAQTFIALCATDFKFAMYP [CCND2], the protein stability index reads like this: under setting [1], 3.01 ± 0.18; under setting [2], 2.97 ± 0.51.

Take SLRQKQPERLCSGPGIVGNVLVDP [GMPPB]: the protein stability index came out at 3.65 ± 0.2 under setting [1] and 3.46 ± 0.15 under setting [2].

In turn, SLTVPLLGAMMLLESPIDPQPLSF [APMAP] yielded a protein stability index under setting [1] of 2.46 ± 0.56 and a protein stability index under setting [2] of 2.81 ± 0.51.

Consider SMVDLTSVTLEDVTPKKSPPPKTN [FAN1], for which the protein stability index is, setting by setting: under setting [1], 5.06 ± 0.12; under setting [2], 4.9 ± 0.27.

For SNHSAQDSAVENLLLLSKAKLVPS [IKZF1], the protein stability index was 3.81 ± 0.22 under setting [1] and 3.95 ± 0.32 under setting [2].

As for SNIKFCSFHPLQYIGFYGKETTNT [PDS5B], the protein stability index runs as follows: under setting [1], 2.1 ± 0.47; under setting [2], 2.29 ± 0.16.

SNKVQDSAPVETPRGKPPLNTRSQ [HMOX1]: the protein stability index came to 5.21 ± 0.38 under setting [1] and 5.26 ± 0.27 under setting [2].

SPESGLEVRDRMLLKITIPNAFIG [DVL3]: the protein stability index amounted to 2.3 ± 0.15 under setting [1] and 2.24 ± 0.34 under setting [2].

As for SPIKLSPTSPVYRGSSSGPSSPAR [MTUS2], the protein stability index is, setting by setting: under setting [1], 4.34 ± 0.21; under setting [2], 4.39 ± 0.2.

Consider SPNTPQPVPEQSALCQGLYFHINQ [FAM104A], for which the protein stability index came out at 3 ± 0.15 under setting [1] and 3.16 ± 0.33 under setting [2].

On to SPPVDLFATASAAVPVSTSKPSSD [SNAP91], for which the protein stability index amounted to 5.31 ± 0.12 under setting [1] and 5.33 ± 0.17 under setting [2].

As to SPSCPEEALAATWEQPWASEVFGP [PXN], the protein stability index amounted to 3.62 ± 0.24 under setting [1] and 3.63 ± 0.14 under setting [2].

With SPSYGRSRSRSRSRSRSRSRSNSR [SRSF1], the protein stability index under setting [1] was 5.39 ± 0.47 and the protein stability index under setting [2] amounted to 5.43 ± 0.26.

For the sequence SRGGTRGWLPSHEGHLDDGGYTPD [RBMY1A1], the protein stability index by setting is: under setting [1], 4.73 ± 0.29; under setting [2], 4.75 ± 0.24.

As to SRGLHAWEISWPLEQRGTHAVVGV [SPSB2], the protein stability index turned out to be 2.43 ± 0.4 under setting [1] and 2.17 ± 0.44 under setting [2].

Take SRHCPQLPPPCAALWCSGHLNGHA [ADAMTS4]: the protein stability index was found to be 2.48 ± 0.3 under setting [1] and 2.48 ± 0.21 under setting [2].

On to SRIKVLETSYQQREERLRRENEEL [FBF1], for which the protein stability index is, setting by setting: under setting [1], 4.9 ± 0.18; under setting [2], 5.07 ± 0.26.

On to SRKPSLKGNREDSARMSAGLPGPE [PLEKHN1], for which the protein stability index reads like this: under setting [1], 4.85 ± 0.35; under setting [2], 4.87 ± 0.2.

In the case of SRLLIFPLYICCNFLYISPEKKN [GMCL1], the protein stability index (treatment: DMSO, c terminus: native) turned out to be 2.97 ± 0.27 and the protein stability index (treatment: MLN4924 1 uM, 8 h, c terminus: native) was 2.71 ± 0.43.

Regarding SRRASESSLSSESSESSDAGLCMD [CDC25B], the protein stability index was 5.06 ± 0.39 under setting [1] and 5.33 ± 0.18 under setting [2].

Turning to SSAIEVIMLRSNESFTMDDMSWTC [VDR], the protein stability index under setting [1] is 2.6 ± 0.53 and the protein stability index under setting [2] is 2.29 ± 0.38.

In the case of SSALHLSKGMSIFLDILRRADKND [NECAB1], the protein stability index was determined as 2.29 ± 0.13 under setting [1] and 2.6 ± 0.31 under setting [2].

With SSEASQLEDAAGGDSASEEKSGSA [FBXO34], the protein stability index was determined as 5.61 ± 0.17 under setting [1] and 5.55 ± 0.29 under setting [2].

For the sequence SSELETTSFFDSDEDDSTSRFSSS [DVL3], the protein stability index by setting is: under setting [1], 5.4 ± 0.32; under setting [2], 5.51 ± 0.31.

Regarding SSESSDAGLCMDSPSPMDPHMAEQ [CDC25B], the protein stability index worked out at 5.675 ± 0.013 under setting [1] and 5.21 ± 0.2 under setting [2].

On to SSHLQSSKAGPTRIFTSNTHSSVV [KLHL13], for which the protein stability index was determined as 3.52 ± 0.22 under setting [1] and 3.52 ± 0.2 under setting [2].

With SSISSSARRTTRSEPIRRAGKSGT [MAP2], the protein stability index was determined as 4.89 ± 0.26 under setting [1] and 5.09 ± 0.16 under setting [2].

As for SSPKFREEAAFPGRRVNAKMPVYS [ELOA2], the protein stability index is 3.3 ± 0.17 under setting [1] and 3.48 ± 0.14 under setting [2].

SSQSSLAQEEEEEDQGRTRKRKQS [DDIT3] returned a protein stability index under setting [1] of 5.55 ± 0.32 and a protein stability index under setting [2] of 5.44 ± 0.09.

Source of the values: the supplement of paper PMC10567573.
